In patent US20030096747A1:

Biological target: VEGFR-1 expressed in rat cavernous smooth muscle cells (CSMC) (rat) (UniProt P53767)
Test: cell-based or functional assay

Chain of VEGFR-1 expressed in rat cavernous smooth muscle cells (CSMC) (rat) (P53767 23-1336): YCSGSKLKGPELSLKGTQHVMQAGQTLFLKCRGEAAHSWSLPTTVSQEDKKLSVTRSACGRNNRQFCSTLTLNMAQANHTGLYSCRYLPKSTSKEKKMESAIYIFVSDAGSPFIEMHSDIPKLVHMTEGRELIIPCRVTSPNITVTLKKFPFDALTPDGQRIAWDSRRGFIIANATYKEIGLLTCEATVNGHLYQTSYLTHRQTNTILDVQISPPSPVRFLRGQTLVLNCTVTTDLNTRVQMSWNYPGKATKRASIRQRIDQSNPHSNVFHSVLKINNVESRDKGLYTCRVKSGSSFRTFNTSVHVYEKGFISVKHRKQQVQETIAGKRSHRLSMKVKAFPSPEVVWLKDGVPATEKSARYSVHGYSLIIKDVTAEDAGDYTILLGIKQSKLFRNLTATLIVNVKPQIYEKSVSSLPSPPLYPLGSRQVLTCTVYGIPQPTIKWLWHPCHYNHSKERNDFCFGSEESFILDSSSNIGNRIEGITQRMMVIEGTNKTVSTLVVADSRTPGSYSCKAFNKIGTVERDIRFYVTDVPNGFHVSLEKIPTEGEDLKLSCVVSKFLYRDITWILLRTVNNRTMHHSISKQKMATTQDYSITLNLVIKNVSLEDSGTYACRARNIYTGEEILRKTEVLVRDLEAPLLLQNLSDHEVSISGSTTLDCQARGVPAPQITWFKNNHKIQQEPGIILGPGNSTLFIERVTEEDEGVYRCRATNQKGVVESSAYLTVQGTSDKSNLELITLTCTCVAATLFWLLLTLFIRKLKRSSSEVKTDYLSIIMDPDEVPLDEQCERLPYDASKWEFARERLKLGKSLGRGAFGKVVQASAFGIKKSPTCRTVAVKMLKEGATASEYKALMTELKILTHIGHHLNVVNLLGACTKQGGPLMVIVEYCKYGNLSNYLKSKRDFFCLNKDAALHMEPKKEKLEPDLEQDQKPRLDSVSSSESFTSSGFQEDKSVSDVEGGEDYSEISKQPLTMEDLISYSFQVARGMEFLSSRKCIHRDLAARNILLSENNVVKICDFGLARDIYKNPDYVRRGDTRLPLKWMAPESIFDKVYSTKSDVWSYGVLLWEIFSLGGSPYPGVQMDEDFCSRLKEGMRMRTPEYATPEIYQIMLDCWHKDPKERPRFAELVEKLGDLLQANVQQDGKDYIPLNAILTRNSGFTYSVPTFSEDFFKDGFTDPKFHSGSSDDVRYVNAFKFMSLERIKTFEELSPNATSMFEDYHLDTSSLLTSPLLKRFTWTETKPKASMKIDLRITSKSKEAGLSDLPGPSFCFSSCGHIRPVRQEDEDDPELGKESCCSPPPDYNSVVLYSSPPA

migration of rat CSMC (Transwell, 4 hr); optimal VEGF concentration: 10 ng/mL | proliferation of rat CSMC (CellTiter-96, OD490nm, 3 days); optimal VEGF concentration: 12.5 ng/mL
Substance: Recombinant human VEGF165 (from UniProt P15692 27-191) (ligand)
